Results reported in patent publication US20130287781A1 (GlaxoSmithKline, published 2013).
Substitutions are numbered along the chain they refer to. In names and notes the source's numbering stands. Where no end group is shown, it is not given here. The star is where a group is joined. Biotin = O=C1N[C@H]2[C@H](CS[C@H]2CCCCC(=O)*)N1

Tests used:
GST-human NOGO-A56 [1] = molecular target: T1, GST-human NOGO-A56 (human); test: SPR (Biacore) off-rate on NOGO chip, panel of H6FL CDR H3 variants with L13FL
T1 construct: Expressed in E. coli BL21 from pGEX-6P1 and purified on glutathione-sepharose; the GST tag is part of the protein in the assays; also called GST-Nogo-A 5+6; GST Nogo-A 5 + 6
T1 sequence (chain, as listed by the source limits assumed): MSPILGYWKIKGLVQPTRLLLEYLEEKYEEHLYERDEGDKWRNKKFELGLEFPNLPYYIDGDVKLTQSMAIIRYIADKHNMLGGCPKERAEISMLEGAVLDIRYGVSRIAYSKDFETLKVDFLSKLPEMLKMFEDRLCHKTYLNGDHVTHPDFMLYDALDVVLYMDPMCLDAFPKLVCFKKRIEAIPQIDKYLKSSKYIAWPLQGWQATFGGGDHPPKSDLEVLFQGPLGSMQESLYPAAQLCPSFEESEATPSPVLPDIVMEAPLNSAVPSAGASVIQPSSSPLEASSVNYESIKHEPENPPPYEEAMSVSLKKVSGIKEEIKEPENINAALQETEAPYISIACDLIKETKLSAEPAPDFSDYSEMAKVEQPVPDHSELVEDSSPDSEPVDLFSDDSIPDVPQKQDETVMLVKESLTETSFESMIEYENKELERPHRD

GST-human NOGO-A56 [2] = molecular target: T1, GST-human NOGO-A56; test: direct ELISA, GST-human NOGO-A56 coated at 1.0 mcg/ml, purified antibody, OD490
Experimental: (§1) Wells were rinsed once with TBS+0.05% Tween (TBST) then incubated with 2% BSA in TBST to block non-specific binding sites at room temperature for 1 hour. Antibodies were diluted in TBST+2% BSA to 10 μg/ml and ½ dilutions made from this. Antibodies were added to wells in duplicate and incubated at room temperature for 1 hour. […] The wells were washed three times with TBST and then incubated with 100 μl OPD peroxidase substrate (Sigma) per well for 10 minutes. The colour reaction was stopped by the addition of 25 μl concentrated H₂SO₄. Optical density at 490 nm was measured using a plate reader. Background values read from wells with no antibody were subtracted.

GST-human NOGO-A56 [3] = molecular target: T1, GST-human NOGO-A56; test: reverse format ELISA: antibody captured on anti-human IgG, GST-Nogo-A 5+6 detected with anti-GST-HRP; the x axis is the antibody concentration
GST-human NOGO-A56 [4] = molecular target: T1, GST-human NOGO-A56; test: SPR (Biacore), GST-human NOGO-A56 amine-coupled to CM5, antibody flowed over, 37 C
Experimental: (§2) GST-human NOGO-A56 was immobilised to a CM5 chip by primary amine coupling using the Biacore Wizard program designed for targeted immobilisation levels. The CM5 sensor surface was activated by passing a solution of 50 mM N-hydroxy-succinimide (NHS) and 200 mM N-ethyl-N′-dimethylaminopropyl carbonide (EDC). Then GST-human NOGO-A56 in sodium acetate buffer, pH5.0 or pH 4.5, was passed over the chip and immobilised. After immobilisation was complete any still activated esters were blocked by an injection of 1M ethanolamine hydrochloride, pH8.5.
(§3) The anti-NOGO mAbs were diluted down in HBS-EP (10 mM HEPES, pH 7.4, 150 mM NaCl, 3 mM EDTA, and 0.005% P-20 surfactant) for the BIAcore 3000 or HBS-EP+ (10 mM HEPES, pH 7.4, 150 mM NaCl, 3 mM EDTA, and 0.05% P-20 surfactant) in the case of the T100 and binding studies were carried out at range of defined antibody concentrations. All runs were referenced against a blanked sensor surface (one that had been activated and blocked as described earlier but had no addition of ligand). Analysis of binding was carried out using the BIAevaluation kinetic analysis software version 4.1 for the BIAcore 3000 and T100 kinetic analysis software version 1.0. […] Unless otherwise stated, the BIAcore experiments were performed at 25° C.

GST-human NOGO-A56 [5] = molecular target: T1, GST-human NOGO-A56; test: SPR (Biacore), GST-human NOGO-A56 amine-coupled to CM5, antibody flowed over, 25 C
Experimental: as §2, §3

GST-human NOGO-A56 [6] = molecular target: T1, GST-human NOGO-A56; test: direct ELISA, GST-human NOGO-A56 coated at 1.0 mcg/ml, purified antibody, OD490; remark: listed apart in the source
Experimental: as §1

GST-human NOGO-A56 [7] = molecular target: T1, GST-human NOGO-A56; test: SPR (Biacore T100), reverse format: antibody captured by Protein A, GST Nogo-A 5+6 0.125-8 nM flowed over; mean (SD in brackets)
Text: Protein A was immobilised to approximately 4000RUs by primary amine and used to capture 200-300RUs of the sample antibodies. […] The values show the mean and standard deviation (in brackets) of three independent runs in duplicate. Each data set was independently analysed prior to the calculation of the mean and standard deviation.

GST-human NOGO-A56 [8] = molecular target: T1, GST-human NOGO-A56; test: SPR (Biacore), GST-human NOGO-A56 amine-coupled to CM5, antibody flowed over, 25 C; remark: listed apart in the source
Experimental: as §2, §3

GST-human NOGO-A56 [9] = molecular target: T1, GST-human NOGO-A56; test: as above; remark: listed apart in the source
Experimental: as §2, §3

GST-human NOGO-A56 [10] = molecular target: T1, GST-human NOGO-A56; test: competition ELISA on coated GST-Nogo-A 5+6; competitor 2A10 pre-mixed, bound 2A10 detected with anti-mouse IgG-HRP
GST-human NOGO-A56 [11] = molecular target: T1, GST-human NOGO-A56; test: direct ELISA, GST-Nogo-A 5+6 coated at 1.0 mcg/ml, anti-human IgG-HRP, Abs490
Experimental: as §1

GST-human NOGO-A56 [12] = molecular target: T1, GST-human NOGO-A56; test: SPR (Biacore T100), antigen amine-coupled to CM5, antibody 0.125-8 nM; mean of six runs in duplicate (SD in brackets)
Text: In the first approach, the recombinant Nogo-A was coupled to the surface of the chip and anti-Nogo-A antibodies passed over this surface. In the second approach, Protein A was used to capture the antibody onto the surface of the chip over which the recombinant GST-human Nogo-A56 was passed.
The antigen was bound to the CM5 chip by primary amine coupling. […] The values show the mean and standard deviation (in brackets) of six independent runs carried out in duplicate. Each completed data set was analysed independently prior to the calculation of mean and standard deviation.

GST-human NOGO-A56 [13] = molecular target: T1, GST-human NOGO-A56; test: SPR (Biacore), NOGO amine-coupled to CM5, antibody flowed over
Experimental: as §2

H28L16 = molecular target: T2, H28L16; test: competition ELISA: H28L16 captured on anti-human IgG, peptide pre-mixed with GST-human NOGO-A56 (1 ug/ml), bound NOGO detected with anti-GST-HRP
T2 construct: IgG1 (L235A, G237A) / kappa; CAMPATH-1H signal (1-19) left out; also called H28FL L16FL; NOGO H28L16
T2 sequence (light, as listed by the source): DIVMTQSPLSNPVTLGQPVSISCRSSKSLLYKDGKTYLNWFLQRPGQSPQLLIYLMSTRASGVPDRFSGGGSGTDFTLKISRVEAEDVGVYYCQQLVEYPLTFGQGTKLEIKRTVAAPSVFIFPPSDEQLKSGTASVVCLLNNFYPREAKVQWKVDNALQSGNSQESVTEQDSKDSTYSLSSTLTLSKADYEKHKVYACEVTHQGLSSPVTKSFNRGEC
Experimental: The plates were rinsed 3 times with TBS containing 0.05% Tween (TBST) then blocked with 1% BSA in TBST at room temperature for 1 hour. […] The plates were washed 3 times with TBST. Peptides (from 0 to 100 g/ml) and GST-human NOGO-A56 at a concentration of 1 ug/ml (diluted in 1% BSA in TBST) were pre-mixed prior to addition into the wells and incubated at room temperature for 1 hour. The plates were washed 3 times with TBST then incubated for 1 hour with rabbit anti-GST peroxidase conjugate (Sigma, #A7340, 1:2000, diluted in 1% BSA in TBST) for 1 hour. The plates were washed 3 times with TBST and then incubated with 50 l OPD peroxidase substrate (Sigma) per well for 10 minutes. The colour reaction was stopped by the addition of 25 l concentrated H₂SO₄. Absorbance at 490 nm was measured using a plate reader.

B1: H6L13 variant with VH CDR3 GQFY (antibody, human IgG1, kappa, V domains shown)
VH: QVQLVQSGAEVKKPGASVKVSCKASGYTFTSYWMHWVRQAPGQGLEWIGNINPSNGGTNYNEKFKSRATMTRDTSTSTAYMELSSLRSEDTAVYYCELGQFYWGQGTLVTVSS
VL: DIVMTQSPLSLPVTLGQPASISCRSSKSLLYKDGKTYLNWFQQRPGQSPQLLIYLMSTRASGVPDRFSGGGSGTDFTLKISRVEAEDVGVYYCQQLVEYPLTFGQGTKLEIKR
notes: Single point variant of H6FL with L13FL
How did the koff (GST-human NOGO-A56 [1]) turn out when B1 was run?
The koff was 0.0335 s⁻¹.

B2: H6L13 variant with VH CDR3 RQGY (antibody, human IgG1, kappa, V domains shown)
VH: B1 VH with G99R, F101G
VL: B1 VL
notes: as for B1
B2 was tested. Which koff (GST-human NOGO-A56 [1]) did it give?
Its koff is 0.0175 s⁻¹.

B3: H6L13 variant with VH CDR3 GIGY (antibody, human IgG1, kappa, V domains shown)
VH: B1 VH with Q100I, F101G
VL: B1 VL
notes: as for B1
Which koff (GST-human NOGO-A56 [1]) does the source give for B3 here?
The koff was 0.0257 s⁻¹.

B4: H6L13 variant with VH CDR3 GQGW (antibody, human IgG1, kappa, V domains shown)
VH: B1 VH with F101G, Y102W
VL: B1 VL
notes: as for B1
How did the koff (GST-human NOGO-A56 [1]) turn out when B4 was run?
The koff was 0.0216 s⁻¹.

B5: H6L13 variant with VH CDR3 GVGY (antibody, human IgG1, kappa, V domains shown)
VH: B1 VH with Q100V, F101G
VL: B1 VL
notes: as for B1
For B5, which koff (GST-human NOGO-A56 [1]) is on record?
The koff was 0.0178 s⁻¹.

B6: H6L13 variant with VH CDR3 GQWY (antibody, human IgG1, kappa, V domains shown)
VH: B1 VH with F101W
VL: B1 VL
notes: as for B1
B6 was tested. Which koff (GST-human NOGO-A56 [1]) did it give?
The koff was 0.0177 s⁻¹.

B7: H6L13 variant with VH CDR3 GQNY (antibody, human IgG1, kappa, V domains shown)
VH: B1 VH with F101N
VL: B1 VL
notes: as for B1
How did the koff (GST-human NOGO-A56 [1]) turn out when B7 was run?
The koff was 0.00966 s⁻¹.

B8: H1L11 (antibody, human IgG1, kappa, V domains shown)
VH: B1 VH with I48M, A68V, A79V, F101G
VL: B1 VL with M4I
notes: CDR H3 GQGY; also called humanised 2A10 variant H1L11 of WO05/061544
How did the “EC50 (read off the curve)” value (GST-human NOGO-A56 [2]) turn out when B8 was run?
Its value is about 0.2 µg/mL.

B9: H28L13 (antibody, human IgG1, kappa, V domains shown)
VH: B1 VH with R67K, G99M, F101G
VL: B1 VL
notes: IgG1 (L235A, G237A) / kappa; CAMPATH-1H signal (1-19) left out; also called H28FL L13FL
With B9 as the binder, how does the “EC50 (read off the curve)” value (GST-human NOGO-A56 [3]) read?
Its value is about 0.06 µg/mL.

What about the Kd (GST-human NOGO-A56 [4]) of the same binder?
Its Kd is 1.02 nM.

And the koff (GST-human NOGO-A56 [4])?
Its koff is 0.00759 s⁻¹.

And the kon (GST-human NOGO-A56 [4])?
Its kon is 7.43e+06 M⁻¹ s⁻¹.

What about the Kd (GST-human NOGO-A56 [5]) of the same binder?
Its Kd is 0.45 nM.

And the koff (GST-human NOGO-A56 [5])?
The koff was 0.00317 s⁻¹.

And the kon (GST-human NOGO-A56 [5])?
Its kon is 6.97e+06 M⁻¹ s⁻¹.

What about the “EC50 (read off the curve)” value (GST-human NOGO-A56 [6]) of the same binder?
The value was about 0.08 µg/mL.

And the Kd (GST-human NOGO-A56 [7])?
Its Kd is 0.34 nM.

And the “EC50 (read off the curve)” value (GST-human NOGO-A56 [2])?
The value was about 0.07 µg/mL.

And the Kd (GST-human NOGO-A56 [8])?
The Kd was 0.936 nM.

And the koff (GST-human NOGO-A56 [8])?
Its koff is 0.00389 s⁻¹.

What about the kon (GST-human NOGO-A56 [8]) of the same binder?
Its kon is 4.16e+06 M⁻¹ s⁻¹.

What about the Kd (GST-human NOGO-A56 [9]) of the same binder?
Its Kd is 0.454 nM.

What about the koff (GST-human NOGO-A56 [9]) of the same binder?
Its koff is 0.0033 s⁻¹.

And the kon (GST-human NOGO-A56 [9])?
Its kon is 7.26e+06 M⁻¹ s⁻¹.

What about the “IC50 (read off the curve)” value (GST-human NOGO-A56 [10]) of the same binder?
The value was about 5 µg/mL.

And the “EC50 (read off the curve)” value (GST-human NOGO-A56 [11])?
The value was about 0.03 µg/mL.

And the Kd (GST-human NOGO-A56 [12])?
Its Kd is 1.11 nM.

B10: H100L101 (antibody, V domains shown)
VH: B1 VH with F101S
VL: DIVMTQSPLSLPVTLGQPASISCRSSKSLLYKDGKTYLNWFQQRPGQSPRLLIYLMSTRASGVPDRFSGGGSGTDFTLKISRVEAEDVGVYYCQQLVEYPLTFGQGTKLEIK
notes: Full length version expressed in CHO cells; L101 is L13 VL with Q45R (Kabat)
Which Kd (GST-human NOGO-A56 [13]) does the source give for B10 here?
Its Kd is 0.329 nM.

And the koff (GST-human NOGO-A56 [13])?
The koff was 0.00429 s⁻¹.

What about the kon (GST-human NOGO-A56 [13]) of the same binder?
Its kon is 1.3e+07 M⁻¹ s⁻¹.

B11: H6L13 variant with VH CDR3 GQYY (antibody, human IgG1, kappa, V domains shown)
VH: B1 VH with F101Y
VL: B1 VL
notes: as for B1
How did the koff (GST-human NOGO-A56 [1]) turn out when B11 was run?
Its koff is 0.0328 s⁻¹.

B12: H6L13 variant with VH CDR3 GAGY (antibody, human IgG1, kappa, V domains shown)
VH: B1 VH with Q100A, F101G
VL: B1 VL
notes: as for B1
Which koff (GST-human NOGO-A56 [1]) does the source give for B12 here?
Its koff is 0.0315 s⁻¹.

B13: H27L13 (antibody, human IgG1, kappa, V domains shown)
VH: B1 VH with R38K, A40R, R67K, M70L, R72V, T74K, G99M, F101G
VL: B1 VL
notes: IgG1 (L235A, G237A) / kappa; CAMPATH-1H signal (1-19) left out
With B13 as the binder, how does the Kd (GST-human NOGO-A56 [4]) read?
Its Kd is 0.641 nM.

And the koff (GST-human NOGO-A56 [4])?
Its koff is 0.00422 s⁻¹.

What about the kon (GST-human NOGO-A56 [4]) of the same binder?
Its kon is 6.58e+06 M⁻¹ s⁻¹.

What about the Kd (GST-human NOGO-A56 [5]) of the same binder?
The Kd was 0.28 nM.

And the koff (GST-human NOGO-A56 [5])?
The koff was 0.00183 s⁻¹.

What about the kon (GST-human NOGO-A56 [5]) of the same binder?
Its kon is 6.58e+06 M⁻¹ s⁻¹.

And the “EC50 (read off the curve)” value (GST-human NOGO-A56 [2])?
Its value is about 0.08 µg/mL.

What about the Kd (GST-human NOGO-A56 [8]) of the same binder?
Its Kd is 0.606 nM.

What about the koff (GST-human NOGO-A56 [8]) of the same binder?
Its koff is 0.00213 s⁻¹.

What about the kon (GST-human NOGO-A56 [8]) of the same binder?
The kon was 3.5e+06 M⁻¹ s⁻¹.

What about the Kd (GST-human NOGO-A56 [9]) of the same binder?
The Kd was 0.291 nM.

What about the koff (GST-human NOGO-A56 [9]) of the same binder?
The koff was 0.0018 s⁻¹.

And the kon (GST-human NOGO-A56 [9])?
Its kon is 6.2e+06 M⁻¹ s⁻¹.

Does Biotin-SGSGKHEPENPPPYEEAMSV [peptide 17] bind (H28L16)?
Result: no binding (tested: about 33 mcg/ml)
